The record followed here is patent US20100291638.

Common to all, as to conditions: dNTP incorporation; background <500
The test system of series [1] is T1, DNA polymerase clone 1160 (uncultured hot spring virus (Great Boiling Spring)).
T1 sequence: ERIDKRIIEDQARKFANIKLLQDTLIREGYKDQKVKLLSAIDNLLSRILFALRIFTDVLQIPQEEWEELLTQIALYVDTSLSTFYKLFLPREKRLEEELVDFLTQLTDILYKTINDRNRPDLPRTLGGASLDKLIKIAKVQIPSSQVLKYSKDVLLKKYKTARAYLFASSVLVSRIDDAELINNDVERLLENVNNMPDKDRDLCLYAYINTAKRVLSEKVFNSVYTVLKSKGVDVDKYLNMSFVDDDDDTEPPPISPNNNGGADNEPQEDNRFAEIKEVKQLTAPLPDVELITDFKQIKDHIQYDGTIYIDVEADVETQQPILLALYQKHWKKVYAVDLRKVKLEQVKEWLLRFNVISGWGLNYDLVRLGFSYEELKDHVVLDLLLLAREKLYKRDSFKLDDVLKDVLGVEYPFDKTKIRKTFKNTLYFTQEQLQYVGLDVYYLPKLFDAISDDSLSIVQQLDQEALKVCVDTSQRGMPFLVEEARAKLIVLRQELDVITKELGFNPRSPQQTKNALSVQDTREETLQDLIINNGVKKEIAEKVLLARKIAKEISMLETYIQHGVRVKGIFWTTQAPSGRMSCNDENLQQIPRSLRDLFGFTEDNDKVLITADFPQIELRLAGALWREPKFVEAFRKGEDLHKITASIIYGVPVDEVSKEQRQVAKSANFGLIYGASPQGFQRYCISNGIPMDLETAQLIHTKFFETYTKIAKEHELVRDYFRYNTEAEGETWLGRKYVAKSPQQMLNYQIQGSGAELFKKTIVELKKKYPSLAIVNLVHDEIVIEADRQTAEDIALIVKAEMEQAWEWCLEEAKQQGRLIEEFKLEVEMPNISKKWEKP

Series [2] concerns T2, DNA polymerase clone 1773 (uncultured hot spring virus (Great Boiling Spring)).
T2 sequence: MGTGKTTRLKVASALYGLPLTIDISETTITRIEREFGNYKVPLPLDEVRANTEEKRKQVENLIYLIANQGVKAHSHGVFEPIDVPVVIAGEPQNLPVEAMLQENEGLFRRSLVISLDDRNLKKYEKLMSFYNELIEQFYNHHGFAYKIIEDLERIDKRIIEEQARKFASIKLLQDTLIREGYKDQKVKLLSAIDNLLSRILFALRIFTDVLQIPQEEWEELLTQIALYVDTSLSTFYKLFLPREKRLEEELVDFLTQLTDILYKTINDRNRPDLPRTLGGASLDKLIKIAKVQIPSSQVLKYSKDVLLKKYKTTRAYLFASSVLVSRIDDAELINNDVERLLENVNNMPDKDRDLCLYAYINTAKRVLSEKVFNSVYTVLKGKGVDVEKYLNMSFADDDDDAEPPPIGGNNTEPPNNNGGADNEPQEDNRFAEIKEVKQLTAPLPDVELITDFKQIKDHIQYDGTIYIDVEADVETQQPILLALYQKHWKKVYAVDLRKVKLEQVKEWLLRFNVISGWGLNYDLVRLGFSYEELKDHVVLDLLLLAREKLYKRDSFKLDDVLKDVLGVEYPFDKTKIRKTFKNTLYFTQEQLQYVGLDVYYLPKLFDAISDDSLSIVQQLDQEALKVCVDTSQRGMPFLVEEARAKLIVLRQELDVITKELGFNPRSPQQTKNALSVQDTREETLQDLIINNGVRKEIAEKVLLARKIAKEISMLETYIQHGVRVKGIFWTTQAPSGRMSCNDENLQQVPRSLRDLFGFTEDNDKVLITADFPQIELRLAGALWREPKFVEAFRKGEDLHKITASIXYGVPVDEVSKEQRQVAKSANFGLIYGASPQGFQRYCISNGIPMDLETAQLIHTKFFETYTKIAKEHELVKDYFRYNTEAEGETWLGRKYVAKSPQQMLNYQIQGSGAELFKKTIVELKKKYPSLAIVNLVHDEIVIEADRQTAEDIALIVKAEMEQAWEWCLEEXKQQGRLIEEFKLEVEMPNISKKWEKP

Series [3] concerns T3, DNA polymerase clone 74 (uncultured hot spring virus (Great Boiling Spring)).
T3 sequence: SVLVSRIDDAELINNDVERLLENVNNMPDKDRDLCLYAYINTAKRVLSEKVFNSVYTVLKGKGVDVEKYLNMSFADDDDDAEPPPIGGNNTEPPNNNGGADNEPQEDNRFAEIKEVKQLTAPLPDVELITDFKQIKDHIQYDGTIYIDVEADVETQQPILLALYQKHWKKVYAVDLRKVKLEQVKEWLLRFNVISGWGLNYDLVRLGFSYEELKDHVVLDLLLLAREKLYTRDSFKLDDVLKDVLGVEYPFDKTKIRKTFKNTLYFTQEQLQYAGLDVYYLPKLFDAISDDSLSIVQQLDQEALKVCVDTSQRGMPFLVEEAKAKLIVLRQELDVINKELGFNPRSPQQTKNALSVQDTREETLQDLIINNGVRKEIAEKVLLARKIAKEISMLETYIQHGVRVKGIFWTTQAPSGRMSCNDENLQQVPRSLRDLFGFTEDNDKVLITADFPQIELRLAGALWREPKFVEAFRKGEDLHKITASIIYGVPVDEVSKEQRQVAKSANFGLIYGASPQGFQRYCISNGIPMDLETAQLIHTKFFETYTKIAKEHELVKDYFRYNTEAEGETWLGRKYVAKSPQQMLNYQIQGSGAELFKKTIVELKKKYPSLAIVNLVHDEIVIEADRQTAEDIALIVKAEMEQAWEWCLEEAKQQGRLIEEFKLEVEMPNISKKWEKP

Consider activated calf thymus DNA, for which the activity in series [1] came out at 139000 cpm; in series [2] it was 124000 cpm; in series [3], 47400 cpm.
